Measurements taken from IntAct's records for PubMed 18033301.

B1: Vesicle transport through interaction with t-SNAREs homolog 1B (Mus musculus), O88384 (parent)
chain: MAASAASSEHFEKLHEIFRGLLEDLQGVPERLLGTAGTEEKKKLVRDFDENQQEANETLAEMEEELRYAPLTFRNPMMSKLRNYRKDLAKLHREVRSTPLTAAPGGRGDLKYGTYTLENEHLNRLQSQRALLLQGTESLNRATQSIERSHRIATETDQIGTEIIEELGEQRDQLERTKSRLVNTNENLSKSRKILRSMSRKVITNKLLLSVIILLELAILVGLVYYKFFRHH
partner: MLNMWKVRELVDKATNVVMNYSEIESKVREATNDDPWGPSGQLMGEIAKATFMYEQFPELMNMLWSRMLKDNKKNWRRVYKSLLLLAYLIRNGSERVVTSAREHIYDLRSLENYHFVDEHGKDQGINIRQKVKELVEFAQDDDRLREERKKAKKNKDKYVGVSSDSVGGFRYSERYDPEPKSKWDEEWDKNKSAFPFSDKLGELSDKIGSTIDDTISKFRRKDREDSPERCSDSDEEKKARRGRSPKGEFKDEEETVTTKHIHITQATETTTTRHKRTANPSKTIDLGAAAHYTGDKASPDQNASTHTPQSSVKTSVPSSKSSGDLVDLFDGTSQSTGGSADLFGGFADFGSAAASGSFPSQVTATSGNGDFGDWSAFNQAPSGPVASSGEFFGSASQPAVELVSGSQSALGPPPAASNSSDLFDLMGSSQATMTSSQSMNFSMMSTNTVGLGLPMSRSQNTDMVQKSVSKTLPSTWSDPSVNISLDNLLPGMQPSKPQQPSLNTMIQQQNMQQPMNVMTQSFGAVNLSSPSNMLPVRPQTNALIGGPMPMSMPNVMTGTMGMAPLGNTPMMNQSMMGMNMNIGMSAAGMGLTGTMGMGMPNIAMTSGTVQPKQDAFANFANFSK
B2: Clathrin interactor 1 (Homo sapiens), Q14677 (parent)
chain: B1 partner
partner: B1 chain

Variants of: B1
Settings: with epn4_human CLINT1, Q14677

Effect of a mutation on the interaction, disrupting interaction strength:
S8W
E65W
E12A
E23R
F73S

Variants of: B2
Settings: with vti1b_mouse Vti1b

Effect of a mutation on the interaction, disrupting interaction strength:
F52D
R146E
R96S
M53D;Y54D
